Holding throughout (conditions): remark: other sources report otherwise
The target of assay [1] is T1, CHIP (carboxyl terminus of heat shock 70-interacting protein), wild type, His-tagged recombinant (human), Q9UNE7.
T1 chain: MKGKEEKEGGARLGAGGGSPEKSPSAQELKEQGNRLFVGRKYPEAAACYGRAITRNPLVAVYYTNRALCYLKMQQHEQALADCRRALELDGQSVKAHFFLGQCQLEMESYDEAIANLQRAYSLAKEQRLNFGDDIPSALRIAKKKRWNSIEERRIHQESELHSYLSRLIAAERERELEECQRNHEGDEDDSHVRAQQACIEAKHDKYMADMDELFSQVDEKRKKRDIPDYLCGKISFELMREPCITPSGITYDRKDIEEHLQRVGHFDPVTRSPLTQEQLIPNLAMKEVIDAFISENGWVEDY
The experiment in a line: SEC-MALS. Background: Size exclusion chromatography separates by hydrodynamic size, large species first.

The target of assay [2] is T2, myc-CHIP wild type (pcDNA3-mycCHIP) (human), Q9UNE7.
T2 chain: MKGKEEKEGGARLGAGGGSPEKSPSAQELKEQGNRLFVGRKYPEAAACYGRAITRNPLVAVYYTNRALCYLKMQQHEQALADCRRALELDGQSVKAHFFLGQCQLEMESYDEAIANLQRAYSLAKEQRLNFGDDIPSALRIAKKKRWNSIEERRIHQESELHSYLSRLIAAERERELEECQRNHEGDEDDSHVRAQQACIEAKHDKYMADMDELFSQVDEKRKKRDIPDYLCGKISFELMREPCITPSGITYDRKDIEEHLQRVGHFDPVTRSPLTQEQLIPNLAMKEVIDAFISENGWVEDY
The experiment in a line: native gel or EMSA. Background: Mobility shift assays separate free from complexed probe on a gel.

The target in assay [3] is T3, CHIP-K30A, His-tagged recombinant (human), Q9UNE7.
T3 chain: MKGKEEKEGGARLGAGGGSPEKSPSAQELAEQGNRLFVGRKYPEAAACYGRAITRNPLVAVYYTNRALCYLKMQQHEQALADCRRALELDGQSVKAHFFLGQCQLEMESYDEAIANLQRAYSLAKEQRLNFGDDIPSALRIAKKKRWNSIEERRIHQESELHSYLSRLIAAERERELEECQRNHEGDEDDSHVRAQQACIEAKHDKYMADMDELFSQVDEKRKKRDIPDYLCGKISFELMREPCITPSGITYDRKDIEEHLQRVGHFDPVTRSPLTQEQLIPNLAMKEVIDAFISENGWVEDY
The experiment in a line: SEC-MALS.

The target in assay [4] is T4, myc-CHIP-K30A (pcDNA3-mycCHIP-K30A) (human), Q9UNE7.
T4 chain: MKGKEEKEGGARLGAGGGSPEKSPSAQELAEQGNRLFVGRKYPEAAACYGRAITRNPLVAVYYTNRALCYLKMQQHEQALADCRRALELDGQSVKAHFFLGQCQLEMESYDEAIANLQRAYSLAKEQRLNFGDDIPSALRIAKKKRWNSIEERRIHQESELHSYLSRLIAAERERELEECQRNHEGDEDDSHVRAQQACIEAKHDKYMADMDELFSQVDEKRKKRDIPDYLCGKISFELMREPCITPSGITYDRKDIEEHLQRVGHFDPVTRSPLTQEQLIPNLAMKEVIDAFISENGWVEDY
The experiment in a line: native gel or EMSA.

The stoichiometry N is the number of molecules, sites or subunits per partner or assembly.

B1: CHIP (carboxyl terminus of heat shock 70-interacting protein), wild type, His-tagged recombinant, Q9UNE7 1-303 (natural protein)
chain: MKGKEEKEGGARLGAGGGSPEKSPSAQELKEQGNRLFVGRKYPEAAACYGRAITRNPLVAVYYTNRALCYLKMQQHEQALADCRRALELDGQSVKAHFFLGQCQLEMESYDEAIANLQRAYSLAKEQRLNFGDDIPSALRIAKKKRWNSIEERRIHQESELHSYLSRLIAAERERELEECQRNHEGDEDDSHVRAQQACIEAKHDKYMADMDELFSQVDEKRKKRDIPDYLCGKISFELMREPCITPSGITYDRKDIEEHLQRVGHFDPVTRSPLTQEQLIPNLAMKEVIDAFISENGWVEDY
As for B1, the stoichiometry N in assay [1] amounted to 2.

B2: myc-CHIP wild type (pcDNA3-mycCHIP), Q9UNE7 1-303 (natural protein)
chain: MKGKEEKEGGARLGAGGGSPEKSPSAQELKEQGNRLFVGRKYPEAAACYGRAITRNPLVAVYYTNRALCYLKMQQHEQALADCRRALELDGQSVKAHFFLGQCQLEMESYDEAIANLQRAYSLAKEQRLNFGDDIPSALRIAKKKRWNSIEERRIHQESELHSYLSRLIAAERERELEECQRNHEGDEDDSHVRAQQACIEAKHDKYMADMDELFSQVDEKRKKRDIPDYLCGKISFELMREPCITPSGITYDRKDIEEHLQRVGHFDPVTRSPLTQEQLIPNLAMKEVIDAFISENGWVEDY
B2 had a stoichiometry N in assay [2] of 2.

B3: CHIP-K30A, His-tagged recombinant, Q9UNE7 1-303 (natural protein)
chain: MKGKEEKEGGARLGAGGGSPEKSPSAQELAEQGNRLFVGRKYPEAAACYGRAITRNPLVAVYYTNRALCYLKMQQHEQALADCRRALELDGQSVKAHFFLGQCQLEMESYDEAIANLQRAYSLAKEQRLNFGDDIPSALRIAKKKRWNSIEERRIHQESELHSYLSRLIAAERERELEECQRNHEGDEDDSHVRAQQACIEAKHDKYMADMDELFSQVDEKRKKRDIPDYLCGKISFELMREPCITPSGITYDRKDIEEHLQRVGHFDPVTRSPLTQEQLIPNLAMKEVIDAFISENGWVEDY
Consider B3, for which the stoichiometry N in assay [3] worked out at 2.

B4: myc-CHIP-K30A (pcDNA3-mycCHIP-K30A), Q9UNE7 1-303 (natural protein)
chain: MKGKEEKEGGARLGAGGGSPEKSPSAQELAEQGNRLFVGRKYPEAAACYGRAITRNPLVAVYYTNRALCYLKMQQHEQALADCRRALELDGQSVKAHFFLGQCQLEMESYDEAIANLQRAYSLAKEQRLNFGDDIPSALRIAKKKRWNSIEERRIHQESELHSYLSRLIAAERERELEECQRNHEGDEDDSHVRAQQACIEAKHDKYMADMDELFSQVDEKRKKRDIPDYLCGKISFELMREPCITPSGITYDRKDIEEHLQRVGHFDPVTRSPLTQEQLIPNLAMKEVIDAFISENGWVEDY
In turn, B4 showed a stoichiometry N in assay [4] of 2.

Source of the values: publication doi:10.1101/283192.
